Source: patent US20180346912

What was measured:
[1] = tested on: T1, VEGF165 (human), P15692-4; assay: competition; conditions: n = Ds unnatural base in DNA, phosphate buffer pH 7.4, 0.005% NP-40, 37 C
T1 sequence: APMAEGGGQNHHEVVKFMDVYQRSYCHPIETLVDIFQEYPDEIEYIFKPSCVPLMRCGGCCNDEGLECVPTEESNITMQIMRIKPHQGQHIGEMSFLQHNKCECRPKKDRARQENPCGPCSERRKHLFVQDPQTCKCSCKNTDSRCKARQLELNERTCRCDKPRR

IFN-γ (human) [2] = target: T2, IFN-γ (human) (UniProt P01579); assay: competition; conditions: PBS, 0.005% NP-40, 37 C
T2 sequence: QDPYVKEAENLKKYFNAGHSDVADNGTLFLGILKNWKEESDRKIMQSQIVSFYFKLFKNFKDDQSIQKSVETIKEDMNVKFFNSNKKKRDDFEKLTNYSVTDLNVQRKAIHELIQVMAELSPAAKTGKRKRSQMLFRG

IFN-γ (human) [3] = target: T2, IFN-γ (human); assay: SPR; conditions: biotinylated DNA on SA chip, 1x PBS + 50 mM NaCl, 0.05% NP-40, 25 C
[4] = EMSA competition vs 32P-Aptamer 47 (=1.00)
[5] = n = Ds unnatural base in DNA, EMSA competition vs 32P-Aptamer 49 (=1.00)

Sequence | binding signal [1, 4] | binding signal (IFN-γ (human) [2]; [5]) | also measured
GCGGTAAGCCGCGTCCGAAGGGGCNTGCGGCGANCCCGAATGGGTCCGC [Aptamer 49GC (VEGF)] | 1.5 | – | –
GCGGTAAACTGCGTCCGAAGGGGCNTGCAGTGANCCCGAATGGGTCCGCCGCGAAGCG [Aptamer 58mh (VEGF)] | 1.58 | – | –
TCCACTCGGGTCATTTANTAATGTAGGTNTGGGCTAGGCNGCTAGTGGA [Aptamer 49 (IFN-γ)] | – | – | binding signal (IFN-γ (human) [2]; n = Ds, 7-(2-thienyl)-3H-imidazo[4,5-b]pyridin-3-yl unnatural base in DNA, reference, EMSA competition): 1; Kd (IFN-γ (human) [3]; n = Ds, 7-(2-thienyl)-3H-imidazo[4,5-b]pyridin-3-yl unnatural base in DNA): 0.046 nM
GCGGTAAGCCGCGTCCGAAGGGGCNTGCGGCGANCCCGAATGGGTCCGCCGCGAAGCG [Aptamer 58GCmh (VEGF)] | 1.59 | – | –
TCCACTCGGGTCCGCGAAGCGGTAGGTNTGGGCTAGGCNGCTAGTGGACGCGAAGCG [Aptamer 57mh (IFN-γ)] | – | 1.4 | –
CCCGCCCGGGTCGCCTANTGGCGTAGGTNTGGGCTAGGCNGCTGGCGGGCGCGAAGCG [Aptamer 58GC (IFN-γ)] | – | 0.24 | –
CGGTAAACTGCGTCCGAAGGGGCNTGCAGTGANCCCGAATGGGTCCG [Aptamer 47 (VEGF)] | – | – | binding signal ([1]; reference): 1
TCCACTCGGGTCATTTANTAATGTAGGTNTGGGCTAGGCNGCTAGTGGACGCGAAGCG [Aptamer 58 (IFN-γ)] | – | 1.29 | Kd (IFN-γ (human) [3]; n = Ds unnatural base in DNA): 0.038 nM
GCGGTAAACTGCGTCCGAAGGGGCNTGCAGTGANCCCGAATGGGTCCGC [Aptamer 49 (VEGF)] | 1.53 | – | –
CCCGCCCGGGTCCGCGAAGCGGTAGGTNTGGGCTAGGCNGCTGGCGGGCGCGAAGCG [Aptamer 57GCmh (IFN-γ)] | – | 1.53 | Kd (IFN-γ (human) [3]; n = Ds unnatural base in DNA): 0.033 nM
